The nanobody polyreactivity screen of Harvey et al. (2022)

Test: yeast display, Sf9 membrane polyspecificity reagent, FACS + sequencing; frameworks hold sequencing errors
Method in brief: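 A nanobody's polyreactivity label depends on the gate it was sorted from. Yeast display cells were stained with 10% biotinylated, detergent-solubilized Sf9 membrane reagent for 1 hour at 4 °C, enriched on streptavidin microbeads and sorted by FACS. The low and high (top ~1%) gates were set on anti-HA fluorescence for expression and streptavidin fluorescence for reagent binding.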

Sequence | polyreactivity (PSR sort gate)
QVQLVESGGGLVQAGGSLRLSCAASGFIFYDNAMGWYRQAPGKERELVAAITSGGSTYYADSVKGRFTISRDNAKNTVYLQMNSLKPEDTAVYYCATRPWGSWYYYWGQGTQVTVSS | high polyreactivity
QVQLVESGGGLVQAGGSLRLSCAASGRTFVKNAMGWYRQAPGKERELVATISSSGASTRYADSVKGRFTISRDNAKNTVYLQMNSLKPDDSAVYYCAAGYGFPRDYWGQGTQVTVSS | high polyreactivity
QVQLVESGGGLVQAGGSLRLSCAASVRIYPYYDRGWYRQAPGKDRELVASTNYADSVKGRFTISRDNAKNTVYLQMNSLKPEDTAVYYCNKRIYGWGGSRYDYWGQGTQVTVSS | low polyreactivity
QVQLVESGGGLVQAGGSLRLSCAASGNTFFLNAMGWYRQAPGKERELVAAITSSGGSTYYADSVKGRFTISRDNAKNTVYLQMNSLKPEDTAVYYCATDRSYPPRSLNRRGPYEYWGQGTQVTVSS | low polyreactivity
QVQLVESGGGFVQAGGSLRLSCAASGFTFYKYAMGWYRQAPGQERELVAAITRGGGSTYYADSVKGRFTISRDHAQNPVYLQKNRLIPEDPAVYYCNVLYGYGTDVSRVDYWGQGTQVTVSS | high polyreactivity
QVQLVESGGGLVQAGGSLRLSCAASGSIFLWNAMGWYRQAPGKERELVAAISSGTSTNYADSVKGRFTISRDNANNTVYLQMNSLKPEDTAVYYCAARGRKNQRRYGYWGQGTQVTVSS | low polyreactivity
QVQRVESGGRLVPPGGSLRLSCAASGRIFYTNAMGCYRQAPGKERELVARITGAGNTYYADSVKGRFTISRDNAKNTVYLQLNSLKPEDTAVYYCTADLYWRGDYWGQGTQVTVSS | high polyreactivity
QVQLVESGGGLVQAGGSLRLSCAASGSIFTPYAMGWYRQAPGKERELVATISWSGGRTYYADSVKGRFTISRDNAMYTVYLQMYSLKPEDTAVYYCAARGYSSEYDYWGQGTQVTVSS | high polyreactivity
QVQLVQTGRGLVQAGGSLRLICAASGIIFKYYGMGWYRQAPGKERELVAAITDRGGSTYYADSVKGRFTISRDHAKNTVYLQMNSLKPEDTAVYYCSAVPSSGKSGFRGGYWGQVTQVTVSS | high polyreactivity
QVQLVESGGGLVQAGGSLRLSCAASGSILPYYAMGWYRQAPGKERELVATITDGTDTYYADSVKGRFTISRDNAKNTVYLQMNSLKPEDTAVYYCNADGYVYYLHEDYWGQGTQVTVSS | low polyreactivity
QVQHVESGGVLVQAGGSLRLSCAASGSIFYPNAMGWYRQAPGKERELVAAISSSGGTNYADSVKGRFTISRDNAKNTVYLQMNSLKPEDTAVYYCNARDKVRYRFSRMDYWGQGTQVTVSS | low polyreactivity
QVQLVESGGGLVQAGGSLRLSCAASGSTFFRYAMGWYRHAPVKERELVAAISASGGRTYYADSVKGRFTISRDNAKNTVYLLMNSLKPEDTAVYYCNRQYGPYQYYYWGQGTQVTVSS | high polyreactivity
QVQLVESGGGLVQAGGSLRLSCAASGGTFYVYAMGWYRQAPGKERELVAAISTSDGITYYADSVKGRFTLSRDNAKNTVYLQMNSLKPEDTAVYYCAAEFFSSFTYAYDYWGQGTQVTVSS | high polyreactivity
QVQLVESGGGLVQAGGSLRLSCAASGRTFWSNAMGSYRQAPGKERELVAAINTSGGNTYYADSVKGRFTISRDNAKNTVYLQMNSLKPEDTAVYFCNTDGLVRNGPFYSWGQGTQVTVSS | low polyreactivity
QVQRVESGGGLVQAGGSLRLSCPASGSTLYGYAMGWYRPSPGKERELVAGITRGGSTSYADSEKGRFTISRDNAKNTVYLQMNSLKPEDTAVYYCAARSYPGSPVRYDYWGQGTQVTVSS | high polyreactivity
QVQLVESGGGLVQAGGSLRLSCASSGSILWLNAMGWYRQAPGKERDLVAAITSRGGSTYYADSVKGRYTITRDNANNTVYLQMNSLKPEDTAVYYCATRSSRGSGSRFDYWGQGTQVTVSS | high polyreactivity

Sequence | polyreactivity (PSR sort gate)
QVQLVESGGGLVQAGGSLRLSCAASGRIFRPYAMGWYRQAPGKERELVAAITQSGGITSYADSVKGRFTISRDNAKNSVYLQMNSLKPEDTAVYYCATTSRYTRSHYDWYDYWGQGTQVTVSS | low polyreactivity
QVQLVESGGGLVQAGGSLRLSCDASGRTFPEYGMGWYRQAPGKEREFVAAISTRGGSTYYANSVKGRFTISRDNAKNTVYLQMNSLKPEDTAVYYCAAKYPGGETYPFDYWGQGTQVTVSS | low polyreactivity
QVQLVESGGGLVQAGGSLRLSCAASGSTFYRYAMGWYRQAPGKERELVARIDWSDGSTNYADSVKGRFTISRDNAKNTVYLQMNSLKPEDTAVYYCAADTYSDTYDGEYEYWGQGTQVTVSS | low polyreactivity
QVQHVESGGGIVQAGGSLRLSCAASGIIFTSNAMGWYRQAPGKERELVAAINWSGARTYYADSVKGRFTISRDNAKNTVYLQMNSLKPEDTAVYYCNVVTRAATYPDYSYDYWGQGTQVTVSS | high polyreactivity
QVQLVESGGGLVQAGGSLRLSCAASGFIFGSYAMGWYRQAPGKERELVAAISTGGGSTYYADSVKGRFTISRDNAKNTVYLQMNSLKPEDTAVYYCATDYRVTVWHPYQWYIYGYWGQGTQVTVSS | low polyreactivity
QVQLVESGGGLVQAGGSLRLSCAASGGIFSTNGMGWYRQAPGKERELVATISYGGGSTSYADSVKGRFTISRDNAKNTVYLHMNSLKPEDTAVYYCAADSFGYNSWYNYDYWGQGSQVTVSS | low polyreactivity
QVQLVESGGGLVQAGGSLRLSCAASGLIFSEYAMGWSRQAPGKETELVADIRSDGGSTYYADSVKGRFTISRDNAKNTVYLQINSLKPEDTAVYYCNAPYRRSAKFRRYGYDYWGQGTQVTVSS | high polyreactivity
QLQLVESGRGLVQAGGSLRLSCAASGRTFYGYDMGWYRPAPGKERELVATISSGGSTNYADSVKGRFTISRDNAKNTVYLQMNSLKPEDTAVYYCNADSYEYPSPYRYYYLGYDYWGQGTQVTVSS | low polyreactivity
QVQLVESGGGLVQAGGSLRLSCAASGRIFLYYAMGWYRQAPGKERELVATISSGGSTHYADSVKGRFTISRDNAKNTVYLQMNSLKPEDTAVYYCAAYGYGWGLEPSTTEMDYWGQGTQVTVSS | low polyreactivity
QVQLVESGGGLVQAGGSLRLSCAASGFTFGYYAMGWYRQAPGKERELVAGISRGGRTNYADSVKGRFTISRDNAKNTVYLQMNRLIPEDTAVFYCAARVVLSPGGYGYWGQGTQVTVSS | high polyreactivity
QVQLVESAGGLVQAGGSLRLSCAASGRIFYRYAMAWYRQAPGKERELVAAITQSGGSTFYADSVKGRFTISRDNAKNTVYLQMNSLKPEDTAVYYCNAYIPSLRGDYWGQGTQVTVSS | high polyreactivity
QVQLVESGGGLVQAGGSLRLSCAASGRIFQRNVMGWYRQAPGKERELVAAITGSGGSTYYADSLKGRFTISRDNAKNTVYLQMNSLKPEYTAVYYCAAKVYRGYDYWGQGTQVTVSS | high polyreactivity
QVQLVESGGGLVQAGGSLRLSCAASGFTFSSYTMGWYRQAPGKEREFVAAISRRTGRTYYADSVKGRFTISRDYAKNTVYLQMNSLKPEDTAVFYCAADLYYYGFFWDFGDGFDYWGQGTQVTVSS | high polyreactivity
QVQLVESGGGLVQAGGSLRLSCAASGRTFNRNAMGWYRQAPGKERELVASITSRGGSTYYADSVKGRFTISRDNAKNTVYLQMNSLKPEDTAVYYCNATPKFFGRYWGYDYWGQGTQVTVSS | high polyreactivity
QVQLVESGGGLVQAGGSLRLSCAASGLTLQPYAMGWYRQAPGKERELVAAITSGGSTYYADSVKGRFTISRDNAKNTVYLQMNSLKPEDTAVYYCAAVGRHYYVKFDYWGQGTQVTVSS | low polyreactivity
QVQVVESGGGLVQAGGSLRLSCAASGSIFGGYTMGWYRQAHGNERELVAGITISGGSTYYADSVKGRFTISRDTAKNTVYLQMNSLKPEDTAVYYCAAVSFVVSSWGYGYWGQGTQVTVSS | low polyreactivity
